These are literature values, as cited in publication PMC9456110.

One data set deals with PIP (Homo sapiens) (UniProt P12273).
Data set [1] concerns the target Calmodulin (Homo sapiens) (UniProt P0DP23).
Data set [2] shares this target. The source holds these as a separate data set.
Data set [3] has the same target. This is another data set of the same source.
The target is the same in data set [4]. The source holds these as a separate data set.
The target is the same in data set [5]. The source holds these as a separate data set.

Read-outs that look alike come from different tables or passages of the source.

UniProt P12273, sequence (P12273 29-146): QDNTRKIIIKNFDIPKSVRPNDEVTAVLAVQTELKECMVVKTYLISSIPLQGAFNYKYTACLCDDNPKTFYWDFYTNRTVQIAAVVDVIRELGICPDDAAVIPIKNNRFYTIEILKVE

AQP5 C-terminus (from UniProt P55064): the Kd with PIP (Homo sapiens) is 570 nM. Take AQP4 C-terminus (from UniProt P55087): in data set [1], the dissociation constant (Kd) is 3600 nM. As to AQP4 N-terminus (from UniProt P55087), the Kd in data set [2] is 3400 nM.

On to AQP4 (from UniProt P55087), for which, in data set [3], the Kd was 29000 nM.

AQP6 N-terminus (from UniProt Q8C4A0): in data set [4], the Kd was 790 nM. Turning to AQP6 N-terminus (from UniProt Q13520), the dissociation constant (Kd) in data set [5] was 1780 nM.

The Kd is the constant that tells how readily two partners part at equilibrium.
